{
  "source": "the nanobody polyreactivity screen of Harvey et al. (2022)",
  "data": [
    {"assay": "yeast display, Sf9 membrane polyspecificity reagent, FACS + sequencing; frameworks hold sequencing errors", "summary_of_the_method": "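A synthetic nanobody library was expressed on Saccharomyces cerevisiae BJ5465 by galactose induction for 36–48 hours. The library was stained for 1 hour at 4 °C with 10% biotinylated, detergent-solubilized Sf9 membrane reagent and enriched with streptavidin microbeads before FACS. Low and high (top ~1%) gates were set on anti-HA fluorescence for expression and streptavidin fluorescence for reagent binding, and each polyreactivity label reflects the gate of origin.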", "values": [
      {"sequence": "QVQLVESGGGLVQAGGSLRLSCAASGITFDSNAMGWYRQAPGKERELVAVISSSGGSTNYADSVKGRFTISRDNAKNTVYLQMKSLKPEDTAVYYCAADYRFYYTRWEYSFNYWGQGTQVTVSS", "polyreactivity (PSR sort gate)": "high polyreactivity"},
      {"sequence": "QVQLVESGGGLVQAGGSLRLSCAASGITFDYYAMGWYRPAPGKERELVAAISGSGARTYYADSVKGRFTISRDTAKNTFYLQMNSLKPEDTAVYYCAAEYYTVPPGGIEDYWGQGTQVTVSS", "polyreactivity (PSR sort gate)": "high polyreactivity"},
      {"sequence": "QVQLVESGGGLVQAGGSLRLSCAASGITFEDYAMGWYRQAPGKERELVAAISWSGDITYYADSVKGRFTISRDNAKNTVYLQMNSLKPVDTAVYYCAADLSPYGYDYWGQGTQVTVSS", "polyreactivity (PSR sort gate)": "low polyreactivity"},
      {"sequence": "QVQLVESGGGLVQAGGSLRLSCAASGITFEGYAMGWYRQAPGKERELVAAIRSSGTSTYYADSVKGRFTISRDNAKNTVYLQMYSLKPEDTAVYYCNRARSSSRYDYWGQGTQVTVSS", "polyreactivity (PSR sort gate)": "low polyreactivity"},
      {"sequence": "QVQLVESGGGLVQAGGSLRLSCAASGITFEVYAMGWYRQAPGKERELVAVITSVGSTNYADSVKGRFTISRDNAKNTVYLQMNSLKPEDTAVYFCAAEKWTVRRFNPYTYYRFDYWGHGTQVTVSS", "polyreactivity (PSR sort gate)": "low polyreactivity"},
      {"sequence": "QVQLVESGGGLVQAGGSLRLSCAASGITFFLYAMGWYRQAPGKERELVAVISASGGSTYYADSVKGRFTISRDNAKNTVYLQMNSLKPEDTAVYYCAAGYRFYGFYAHDYWGQGTQVTVSS", "polyreactivity (PSR sort gate)": "high polyreactivity"},
      {"sequence": "QVQLVESGGGLVQAGGSLRLSCAASGITFFPYAMGWYRQAPGKERELVASISDGGGTNYADSVKGRFTISRDNAKNTVYFQMNSLKPEDTAVYYCATDASTYAYYGGDYWGQGTQVTVSS", "polyreactivity (PSR sort gate)": "low polyreactivity"},
      {"sequence": "QVQLVESGGGLVQAGGSLRLSCAASGITFFRYAMGWYRQAPGKERELVATIRSGDRTYYADSVKGRFTISRDNAKNTVYLQMNSLKPEDTAVYYCAAYDNRYTIRPENYWGQGTQVTVSS", "polyreactivity (PSR sort gate)": "high polyreactivity"},
      {"sequence": "QVQLVESGGGLVQAGGSLRLSCAASGITFFTYAMGWYRQAPGKERELVATISRSGGRTYYADSVKGRFTISRDNAKNTVYLQMNSLKPEDTAVYYCAARTYYWGALIVSYDYWGQGTQVTVSS", "polyreactivity (PSR sort gate)": "low polyreactivity"},
      {"sequence": "QVQLVESGGGLVQAGGSLRLSCAASGITFFYNAMGWYRQAPGKERELVAAISTSGGSTHYADSVKGRFTISRDIAKNTVYLQMNSLKPEDTAVYYCAARGRYRLYGYWGQGTQVTVSS", "polyreactivity (PSR sort gate)": "high polyreactivity"},
      {"sequence": "QVQLVESGGGLVQAGGSLRLSCAASGITFFYYAMGWYTQAPGKERELVAAISTSGGRTYYADSVKGRFTISRDNAKNTVYLQMHSLKPEDTAVYYCAARSRVQPAGPRYDYWGQGTQVTVSS", "polyreactivity (PSR sort gate)": "high polyreactivity"},
      {"sequence": "QVQLVESGGGLVQAGGSLRLSCAASGITFGANALGWYRQAPGKERELVAEITWSGGDTYYADSVKGRFTISRDNAKNTVYLQMNSLKPEDTAVYYCNALQPGLGSPLGEYDYWGQGTQVTVSS", "polyreactivity (PSR sort gate)": "low polyreactivity"},
      {"sequence": "QVQLVESGGGLVQAGGSLRLSCAASGITFGANTMGCYRQAPGKERELVSAITISGGITHYADSVKGRVTISRDNAKHTVYLQLNSLKPEDTAVNYCAAGAYWRLYPYRQRNGGRRYYWGQGTQVTVSW", "polyreactivity (PSR sort gate)": "low polyreactivity"},
      {"sequence": "QVQLVESGGGLVQAGGSLRLSCAASGITFGDNAMGWYRQAPGKERELVAAISSGGSTDYADSVKGRFTISRDNAKNTVYLQMNSLNPEDTAVYYCAVDWVSVPEYDYWGQGTQVTVSS", "polyreactivity (PSR sort gate)": "low polyreactivity"},
      {"sequence": "QVQLVESGGGLVQAGGSLRLSCAASGITFGEYAMGWYRQAPGKERQLVAAITTSGTSTYYADSVKGRFTISRDNAKNTDYLQMNSLKPEDTAVYYCAAYSRAAAGFYSSRRDYYWGQGTQVSVSS", "polyreactivity (PSR sort gate)": "low polyreactivity"},
      {"sequence": "QVQLVESGGGLVQAGGSLRLSCAASGITFGFNAMGWNRQAPGKERELVAAITWSVGRTYYADSVKGRFTISRDNAKNTVYLQMNSLKPEDTAVYYCAKDFEAGDDYFAYDYWGQGTQVTVSS", "polyreactivity (PSR sort gate)": "low polyreactivity"}
    ]}
  ]
}
